From patent US20130064837A1 (University of California, published 2013) come the findings set out here.

The target in one assay is T1, human integrin β8 (human, UniProt P26012 43-769).
T1 construct: whole, on cells; also called ITGB8; H ITGB8
The experiment in a line: antibody binding, cell surface staining, flow cytometry. The text has this: (§1) Chimeric integrin β8 constructs, which swapped mouse sequences into human ITGB8 were used to localize the 37E1B5 binding epitope. The epitope was localized by antibody binding, cell surface staining, and detection by flow cytometry. The 37E1B5 epitope is encompassed within amino acids 74-180 of human integrin β8. 37E1B5 binds to human, but not to mouse β8. Therefore, at least one of the 9 non-conservative amino acid differences or 7 minor amino acid differences (indicated by + in the middle line of the sequence) are included in the binding epitope. These domains reflect portions of what are known in the field as the Psi, hybrid and the alpha1 helix of the Beta-I domain of the integrin β8 subunit, and are found on the surface of the molecule.
A general note: Flow cytometry measures light scatter and fluorescence of single cells or particles in a stream.

The target of a further assay is human integrin αvβ8 (human, UniProt P06756 31-1048; P26012 43-769). The experiment in a line: cell staining and flow cytometry on primary human articular chondrocytes. The procedure:
Adult articular cartilage was harvested from the joint space of knee from a patient undergoing elective repair of a knee for chronic osteoarthritis. Primary chondrocytes were grown to 70% confluence and the integrin receptor expression determined by cell staining and flow cytometry. The antibodies used were anti-β8 (37E1B5), and anti-β6 (E7P6). […] Primary chondrocytes were co-cultured with TMLC TGF-β reporter cells (Annes et al. (2004) J. Cell Biol. 165:723) in a TGF-β bioassay in the presence or absence of anti-β8 (37E1B5) or neutralizing anti-β6. Anti-β8 produced a robust blockade of TGF-β activation while anti-β6 produced no such effect.

Another assay addresses T2, mouse integrin β8 (mouse, UniProt Q0VBD0 22-767, limits assumed).
T2 construct: also called itgb8; M itgb8
T2 sequence (looked up): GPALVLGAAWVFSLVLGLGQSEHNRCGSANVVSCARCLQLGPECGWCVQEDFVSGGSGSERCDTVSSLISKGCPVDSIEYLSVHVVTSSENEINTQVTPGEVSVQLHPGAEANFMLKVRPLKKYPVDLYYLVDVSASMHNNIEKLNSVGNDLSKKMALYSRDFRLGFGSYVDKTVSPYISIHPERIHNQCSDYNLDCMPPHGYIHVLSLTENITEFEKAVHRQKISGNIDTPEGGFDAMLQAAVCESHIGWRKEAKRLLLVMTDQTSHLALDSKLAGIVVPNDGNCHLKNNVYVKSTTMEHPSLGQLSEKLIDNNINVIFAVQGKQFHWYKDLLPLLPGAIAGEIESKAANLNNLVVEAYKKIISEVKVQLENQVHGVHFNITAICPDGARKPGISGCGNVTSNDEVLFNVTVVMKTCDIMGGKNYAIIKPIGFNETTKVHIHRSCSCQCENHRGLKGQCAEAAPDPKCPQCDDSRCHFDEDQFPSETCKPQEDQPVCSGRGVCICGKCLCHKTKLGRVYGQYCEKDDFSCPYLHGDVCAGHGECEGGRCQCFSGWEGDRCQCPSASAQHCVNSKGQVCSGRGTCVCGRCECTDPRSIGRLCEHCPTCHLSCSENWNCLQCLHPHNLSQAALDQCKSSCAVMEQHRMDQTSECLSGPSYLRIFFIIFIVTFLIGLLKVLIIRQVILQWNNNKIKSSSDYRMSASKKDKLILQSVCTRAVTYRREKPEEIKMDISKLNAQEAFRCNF
The experiment in a line: antibody binding, cell surface staining, flow cytometry (mouse/human chimeric β8 constructs).
Source text: as §1

T1 sequence (P26012 43-769): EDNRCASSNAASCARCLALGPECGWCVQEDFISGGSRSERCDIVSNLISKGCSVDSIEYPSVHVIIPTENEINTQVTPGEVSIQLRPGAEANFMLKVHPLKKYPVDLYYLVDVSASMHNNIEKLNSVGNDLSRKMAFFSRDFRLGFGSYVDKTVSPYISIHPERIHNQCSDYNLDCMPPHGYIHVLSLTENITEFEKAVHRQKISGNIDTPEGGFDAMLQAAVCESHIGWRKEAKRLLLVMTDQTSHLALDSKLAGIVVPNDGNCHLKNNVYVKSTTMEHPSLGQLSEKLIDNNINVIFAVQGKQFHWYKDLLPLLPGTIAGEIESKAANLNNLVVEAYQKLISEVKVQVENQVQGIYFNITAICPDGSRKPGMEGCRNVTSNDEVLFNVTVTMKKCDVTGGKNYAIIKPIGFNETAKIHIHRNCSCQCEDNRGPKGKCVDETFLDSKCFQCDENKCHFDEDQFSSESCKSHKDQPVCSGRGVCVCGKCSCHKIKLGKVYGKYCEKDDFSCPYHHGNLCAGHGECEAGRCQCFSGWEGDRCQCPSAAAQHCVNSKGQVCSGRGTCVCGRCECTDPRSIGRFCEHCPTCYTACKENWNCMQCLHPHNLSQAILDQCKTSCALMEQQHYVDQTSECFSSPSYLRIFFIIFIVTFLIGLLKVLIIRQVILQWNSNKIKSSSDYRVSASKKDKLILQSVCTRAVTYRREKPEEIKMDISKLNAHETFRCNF
Chain of human integrin αvβ8 (P06756 31-1048, chain 1 of 2): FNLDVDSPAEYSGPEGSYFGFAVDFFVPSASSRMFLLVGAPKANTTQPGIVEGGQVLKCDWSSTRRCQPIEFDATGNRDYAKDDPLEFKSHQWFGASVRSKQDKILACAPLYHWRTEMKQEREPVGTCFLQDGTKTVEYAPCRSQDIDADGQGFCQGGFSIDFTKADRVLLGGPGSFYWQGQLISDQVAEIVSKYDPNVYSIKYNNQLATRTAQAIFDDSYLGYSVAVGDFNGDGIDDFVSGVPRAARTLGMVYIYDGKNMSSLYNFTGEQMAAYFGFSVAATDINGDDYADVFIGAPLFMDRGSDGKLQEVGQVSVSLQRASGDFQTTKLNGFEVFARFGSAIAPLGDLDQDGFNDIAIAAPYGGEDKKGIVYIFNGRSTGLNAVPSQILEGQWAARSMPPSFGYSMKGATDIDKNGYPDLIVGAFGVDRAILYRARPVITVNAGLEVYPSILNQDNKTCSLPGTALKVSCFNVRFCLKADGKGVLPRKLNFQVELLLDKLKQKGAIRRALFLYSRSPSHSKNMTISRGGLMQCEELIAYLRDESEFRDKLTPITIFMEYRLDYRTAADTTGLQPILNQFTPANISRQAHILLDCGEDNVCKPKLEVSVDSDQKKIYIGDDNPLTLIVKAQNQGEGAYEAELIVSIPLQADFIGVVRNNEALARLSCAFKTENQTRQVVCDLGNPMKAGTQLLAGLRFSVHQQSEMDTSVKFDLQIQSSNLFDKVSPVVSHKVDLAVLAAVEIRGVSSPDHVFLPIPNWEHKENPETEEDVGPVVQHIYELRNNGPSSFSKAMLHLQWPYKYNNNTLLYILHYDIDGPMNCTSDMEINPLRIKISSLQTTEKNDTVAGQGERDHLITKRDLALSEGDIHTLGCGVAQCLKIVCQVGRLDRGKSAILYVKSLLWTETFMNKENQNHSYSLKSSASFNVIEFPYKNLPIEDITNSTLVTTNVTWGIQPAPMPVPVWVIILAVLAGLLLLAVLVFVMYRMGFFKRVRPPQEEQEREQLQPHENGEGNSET
Chain of human integrin αvβ8 (P26012 43-769, chain 2 of 2): as the sequence (P26012 43-769) above

B1: 37E1B5 (antibody, V domains shown)
VH: EVQLVESGGGLVQPGGSLNLSCAVSGFVFSRYWMSWVRQAPGKGLEWIGEINPDSSTINYTSSLKDKFIISRDNAKNTLYLQMNKVRSEDTALYYCACLITTEDYWGQGTSVTVSS
VL: QIVLTQSPSSMYASLGERVTIPCKASQDINSYLSWFQQKPGKSPKTLIYYANRLVDGVPSRFSGSGSGQDYSLTISSLEYEDMGIYYCLQYDEFPYTFGGGTKLEIK
notes: Three versions were made in CHO cells: mouse IgG1, mouse IgG2a and partially humanized IgG1; also called 37E1B5 antibody; anti-β8 (37E1B5)
Consider B1, for which the binding result is on record as “binds” in the assay with human integrin β8, “binds” in the assay with human integrin αvβ8 and “no binding” in the assay with mouse integrin β8.
